Data on one molecule can be found in PMC5220579 (Molecular immunology, 2016).

Assay [1] deals with T1, human PVR (poliovirus receptor) (human, UniProt P15151 21-343).
T1 sequence (looked up): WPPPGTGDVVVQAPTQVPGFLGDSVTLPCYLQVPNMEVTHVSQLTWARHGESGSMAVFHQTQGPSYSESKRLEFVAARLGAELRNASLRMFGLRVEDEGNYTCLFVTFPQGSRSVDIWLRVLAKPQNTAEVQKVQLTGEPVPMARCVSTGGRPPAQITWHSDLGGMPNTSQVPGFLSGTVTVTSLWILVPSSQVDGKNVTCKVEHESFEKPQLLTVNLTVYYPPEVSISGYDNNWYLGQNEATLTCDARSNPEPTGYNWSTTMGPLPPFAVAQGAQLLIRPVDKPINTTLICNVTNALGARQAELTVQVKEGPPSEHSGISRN
The experiment in a line: SPR.

Assay [2] concerns the target T2, IgV domain of human nectin-2 (human, UniProt Q92692 32-158).
T2 sequence: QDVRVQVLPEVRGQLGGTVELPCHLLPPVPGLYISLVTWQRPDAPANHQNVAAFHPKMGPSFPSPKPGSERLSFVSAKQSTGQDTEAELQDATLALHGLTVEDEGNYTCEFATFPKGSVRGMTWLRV
Description: SPR. In general terms: SPR reads the build-up and loss of mass on a sensor chip optically.

B1: IgV domain of human TIGIT (residues 22 to 137) (domain or fragment, UniProt Q495A1 22-137, looked up)
chain: MMTGTIETTGNISAEKGGSIILQCHLSSTTAQVTQVNWEQQDQLLAICNADLGWHISPSFKDRVAPGPGLGLTLQSLTVNDTGEYFCIYHTYPDGTYTGRIFLEVLESSVAEHGAR
The Kd is the free concentration of one partner at which half of the binding sites on the other are occupied at equilibrium, for simple one-to-one binding. High values mean weaker binding, low ones tighter binding. For the molecule B1, the Kd in assay [1] is 0.36 ± 0.025 µM; in assay [2], 11.5 ± 1.1 µM.
